Reference: patent publication US20110034670A1

What was measured:
[1] = target: Src tyrosine kinase; assay: radioactive Src kinase assay, catalytic activity inhibition
[2] = target: Lck; assay: steady-state kinetics, radioactive kinase assay; ATP-binding site of Lck
[3] = target: Lck; assay: steady-state kinetics, radioactive kinase assay
[4] = target: Src tyrosine kinase; assay: steady-state kinetics, Ki against Km of ATP
[5] = target: Lck; assay: steady-state kinetics, ATP-binding site, after UV exposure
[6] = target: Src tyrosine kinase; assay: steady-state kinetics, radioactive kinase assay; ATP-binding site of Src
[7] = target: Src tyrosine kinase; assay: steady-state kinetics, radioactive kinase assay; ATP-binding site
[8] = target: Lck; assay: as above

Lck, sequence (D3DPP8 whole entry): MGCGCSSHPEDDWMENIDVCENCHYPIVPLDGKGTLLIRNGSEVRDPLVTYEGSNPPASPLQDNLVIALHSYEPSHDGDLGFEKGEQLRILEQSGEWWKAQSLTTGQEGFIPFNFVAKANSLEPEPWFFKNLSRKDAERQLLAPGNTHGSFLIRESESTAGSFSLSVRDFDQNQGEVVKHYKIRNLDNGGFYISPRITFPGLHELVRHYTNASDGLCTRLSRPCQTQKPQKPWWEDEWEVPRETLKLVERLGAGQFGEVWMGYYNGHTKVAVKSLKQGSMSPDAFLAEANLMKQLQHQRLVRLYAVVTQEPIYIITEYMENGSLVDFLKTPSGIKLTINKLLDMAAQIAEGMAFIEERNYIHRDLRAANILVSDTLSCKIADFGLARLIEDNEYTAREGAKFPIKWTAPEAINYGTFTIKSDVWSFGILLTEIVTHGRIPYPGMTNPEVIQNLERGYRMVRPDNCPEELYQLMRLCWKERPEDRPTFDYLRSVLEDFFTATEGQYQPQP

Q: Which Ki [1] does the source give for “H2N-1,13-Trioxa-Suc-pTyr-Glu-Glu-Ile-OH (16) (peptide)” here?
A: The Ki was 608 µM.

Q: What does the source list for “ATP-1,13-Trioxa-Suc-pTyr-Glu-Glu-Ile-OH (5) (peptide)”?
A: Ki [2]: 25.3 µM; fold better binding affinity than ATP [3]: 3.9 fold; fold more potent than ATP alone [4]: 44 fold

Q: How did the Ki [5] turn out when “ATP-1,13-Trioxa-SA-pTyr-γ-p-azidoGlu-Glu-Ile-OH (7) (peptide)” was run?
A: The Ki was 29.8 µM.

Q: And the Ki [6]?
A: The Ki was 1.7 to 2.6 µM.

Q: What about the Ki [7] of the same substance?
A: Its Ki is 2.7 µM.

Q: What about the Ki [8] of the same substance?
A: The Ki was 30 µM.
